Patent US20120321607A1

Key:
[1] = system: T1, Factor VII (wild-type, single-chain zymogen)
T1 sequence: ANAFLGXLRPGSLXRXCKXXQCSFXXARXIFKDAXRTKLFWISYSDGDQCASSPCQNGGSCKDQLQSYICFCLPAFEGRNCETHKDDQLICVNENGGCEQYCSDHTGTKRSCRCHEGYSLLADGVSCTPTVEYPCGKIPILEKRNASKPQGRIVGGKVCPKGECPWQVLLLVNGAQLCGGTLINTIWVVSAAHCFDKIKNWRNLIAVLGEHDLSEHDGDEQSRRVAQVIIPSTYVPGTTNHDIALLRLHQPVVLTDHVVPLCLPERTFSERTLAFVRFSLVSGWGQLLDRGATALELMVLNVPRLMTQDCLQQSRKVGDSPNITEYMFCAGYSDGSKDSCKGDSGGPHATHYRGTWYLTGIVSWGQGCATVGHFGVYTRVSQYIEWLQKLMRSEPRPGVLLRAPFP

[2] = molecular target: FVII_XHC: FVII with FX activation peptide inserted in the end of FVII heavy chain; experiment: cell-based or functional assay

Factor IXa
activation of FVII (cleavage to two chains) on reducing SDS-PAGE; 250 nM FIXa for 20 h [1]: completely activated under all described conditions

Factor IXa (from UniProt P00740 47-461) (enzyme)
time to complete activation, reducing SDS-PAGE, 80 nM FIXa [2]: 4 h

Factor XIa
activation of FVII (cleavage to two chains) on reducing SDS-PAGE; 75 nM FXIa for 2.5 h [1]: completely activated under all described conditions

Factor Xa
activation of FVII (cleavage to two chains) on reducing SDS-PAGE; 100 nM FXa for 2 h [1]: completely activated under all described conditions
